Test results published in patent publication US20060073152A1 (Genentech, published 2006).
Positions of bridges follow the written chain, without caps; N, C: chain ends. No end group written: not given here.

B1: RB-B6 (peptide)
peptide: QWQMENVCLPKWGCLWEELD
modifications: not fully specified (bridges); cysteine pairing not given here; also: phage-displayed
notes: on phage
B2: RB-B11 (peptide)
peptide: QWQVMDICLPRWGCLWADEY
modifications: not fully specified (bridges); cysteine pairing not given here; also: phage-displayed
notes: on phage

biological target: T1, rat serum albumin (rat, UniProt P02770 25-608); assay: peptide competition for albumin
T1 construct: also called Rat SA; RSA
T1 sequence (P02770 25-608 limits assumed): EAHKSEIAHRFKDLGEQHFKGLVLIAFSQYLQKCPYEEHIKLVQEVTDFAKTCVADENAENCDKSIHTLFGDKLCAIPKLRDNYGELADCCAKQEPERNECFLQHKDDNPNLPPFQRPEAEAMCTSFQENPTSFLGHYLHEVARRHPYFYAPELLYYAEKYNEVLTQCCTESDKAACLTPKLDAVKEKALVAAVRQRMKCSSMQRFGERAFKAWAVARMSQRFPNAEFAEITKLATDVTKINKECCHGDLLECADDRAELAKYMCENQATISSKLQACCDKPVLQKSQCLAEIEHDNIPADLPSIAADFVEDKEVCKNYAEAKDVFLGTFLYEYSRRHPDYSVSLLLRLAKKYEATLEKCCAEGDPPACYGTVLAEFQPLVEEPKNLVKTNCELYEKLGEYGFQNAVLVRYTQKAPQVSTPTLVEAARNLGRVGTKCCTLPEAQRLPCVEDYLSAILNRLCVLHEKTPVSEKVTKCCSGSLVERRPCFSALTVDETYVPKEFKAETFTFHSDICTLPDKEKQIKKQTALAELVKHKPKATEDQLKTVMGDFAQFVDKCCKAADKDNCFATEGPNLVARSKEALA

| Binder | IC50 [nM] |
| --- | --- |
| Ac-RLMEDICLPRWGCLWEDD-NH2 (cysteine pairing not given here, free peptide) [SA10] | 77 |
| Ac-MEDICLPRWGCLWED-NH2 (not fully specified (bridges); cysteine pairing not given here, free peptide) [SA12] | 205 |
| QRLMEDICLPRWGCLWEDDF-NH2 (disulfide 8-14 (inferred)) [SA06] | 68 |
| QGLIGDICLPRWGCLWGDSV-NH2 (not fully specified (bridges); cysteine pairing not given here, free peptide) [SA07] | 35 |
| Ac-MEDICLPRWGCLWEDD-NH2 (not fully specified (bridges); cysteine pairing not given here, free peptide) [SA11] | 232 |
| MEDICLPRWGCLWED-NH2 (not fully specified (bridges); cysteine pairing not given here, free peptide) [SA05] | 161 |
| Ac-EDICLPRWGCLWEDD-NH2 (not fully specified (bridges); cysteine pairing not given here, free peptide) [SA09] | 258 |

biological target: T2, mouse serum albumin (mouse, UniProt P07724 25-608); assay: peptide competition for albumin
T2 construct: also called Mouse SA; MuSA
T2 sequence (P07724 25-608 limits assumed): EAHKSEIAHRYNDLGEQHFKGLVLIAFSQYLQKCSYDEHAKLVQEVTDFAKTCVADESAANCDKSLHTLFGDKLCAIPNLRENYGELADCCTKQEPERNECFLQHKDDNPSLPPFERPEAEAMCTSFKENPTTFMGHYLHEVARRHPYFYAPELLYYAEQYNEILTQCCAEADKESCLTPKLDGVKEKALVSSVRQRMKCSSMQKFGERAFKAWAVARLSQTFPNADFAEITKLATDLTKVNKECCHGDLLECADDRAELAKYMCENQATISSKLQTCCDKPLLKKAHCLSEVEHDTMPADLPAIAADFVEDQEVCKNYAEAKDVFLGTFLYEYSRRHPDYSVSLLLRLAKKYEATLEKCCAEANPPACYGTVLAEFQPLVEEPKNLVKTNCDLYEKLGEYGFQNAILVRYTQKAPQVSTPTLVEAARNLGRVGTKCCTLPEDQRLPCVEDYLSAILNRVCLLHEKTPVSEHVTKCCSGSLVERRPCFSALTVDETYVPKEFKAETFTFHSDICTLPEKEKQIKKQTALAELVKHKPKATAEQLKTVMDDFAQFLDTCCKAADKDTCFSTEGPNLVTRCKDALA

| Binder | IC50 [nM] |
| --- | --- |
| Ac-MEDICLPRWGCLWED-NH2 (not fully specified (bridges); cysteine pairing not given here, free peptide) [SA12] | 13 |
| QRLMEDICLPRWGCLWEDDF-NH2 (disulfide 8-14 (inferred)) [SA06] | 8 |
| QGLIGDICLPRWGCLWGDSV-NH2 (not fully specified (bridges); cysteine pairing not given here, free peptide) [SA07] | 6 |
| Ac-MEDICLPRWGCLWEDD-NH2 (not fully specified (bridges); cysteine pairing not given here, free peptide) [SA11] | 17 |
| MEDICLPRWGCLWED-NH2 (not fully specified (bridges); cysteine pairing not given here, free peptide) [SA05] | 6 |
| Ac-EDICLPRWGCLWEDD-NH2 (not fully specified (bridges); cysteine pairing not given here, free peptide) [SA09] | 6 |

biological target: T3, rabbit serum albumin (rabbit, UniProt P49065 25-608); assay: peptide competition for albumin
T3 construct: also called Rabbit SA; BuSA
T3 sequence (P49065 25-608 limits assumed): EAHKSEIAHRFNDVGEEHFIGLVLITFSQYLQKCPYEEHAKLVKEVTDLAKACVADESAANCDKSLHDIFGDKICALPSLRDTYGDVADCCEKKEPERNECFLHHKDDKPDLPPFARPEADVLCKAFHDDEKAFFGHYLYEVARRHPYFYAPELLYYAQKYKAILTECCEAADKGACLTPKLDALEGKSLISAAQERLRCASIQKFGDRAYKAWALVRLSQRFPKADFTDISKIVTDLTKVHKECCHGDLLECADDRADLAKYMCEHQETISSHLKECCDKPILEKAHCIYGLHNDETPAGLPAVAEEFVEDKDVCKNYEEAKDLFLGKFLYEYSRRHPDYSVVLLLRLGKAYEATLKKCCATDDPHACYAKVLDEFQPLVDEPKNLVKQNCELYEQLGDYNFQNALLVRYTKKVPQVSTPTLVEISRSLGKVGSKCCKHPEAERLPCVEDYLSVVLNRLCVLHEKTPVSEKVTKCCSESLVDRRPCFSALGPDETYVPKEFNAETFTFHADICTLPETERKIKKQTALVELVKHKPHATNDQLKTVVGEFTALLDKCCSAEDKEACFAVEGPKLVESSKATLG

| Binder | IC50 [nM] |
| --- | --- |
| Ac-RLMEDICLPRWGCLWEDD-NH2 (cysteine pairing not given here, free peptide) [SA10] | 86 |
| Ac-MEDICLPRWGCLWED-NH2 (not fully specified (bridges); cysteine pairing not given here, free peptide) [SA12] | 1760 |
| QRLMEDICLPRWGCLWEDDF-NH2 (disulfide 8-14 (inferred)) [SA06] | 128 |
| QGLIGDICLPRWGCLWGDSV-NH2 (not fully specified (bridges); cysteine pairing not given here, free peptide) [SA07] | 30 |
| Ac-MEDICLPRWGCLWEDD-NH2 (not fully specified (bridges); cysteine pairing not given here, free peptide) [SA11] | 1210 |
| MEDICLPRWGCLWED-NH2 (not fully specified (bridges); cysteine pairing not given here, free peptide) [SA05] | 804 |
| Ac-EDICLPRWGCLWEDD-NH2 (not fully specified (bridges); cysteine pairing not given here, free peptide) [SA09] | 1690 |

biological target: T4, human serum albumin (human, UniProt P02768 25-609); assay: phage binding
T4 construct: also called Human SA; HuSA

| Binder | binding result |
| --- | --- |
| LWAMEDICLPKWGCLWEDDF (on phage) [RB-B4] | binds |
| LRLMDNICLPRWGCLWDDGF (not fully specified (bridges); cysteine pairing not given here, on phage) [RB-B7] | binds |
| NRQMEDICLPQWGCLWGDDF (on phage) [RB-H6] | binds |
| HSQMEDICLPRWGCLWGDEL (not fully specified (bridges); cysteine pairing not given here, on phage) [RB-B8] | binds |
| QRHPEDICLPRWGCLWGDDD (on phage) [RB-H1] | binds |
| B1 | binds |
| B2 | binds |
| QWHMEDICLPQWGCLWGDVL (on phage) [RB-B5] | binds |

biological target: T1, rat serum albumin; assay: phage binding

| Binder | binding result |
| --- | --- |
| LWAMEDICLPKWGCLWEDDF (on phage) [RB-B4] | binds |
| LRLMDNICLPRWGCLWDDGF (not fully specified (bridges); cysteine pairing not given here, on phage) [RB-B7] | binds |
| NRQMEDICLPQWGCLWGDDF (on phage) [RB-H6] | binds |
| HSQMEDICLPRWGCLWGDEL (not fully specified (bridges); cysteine pairing not given here, on phage) [RB-B8] | binds |
| QRHPEDICLPRWGCLWGDDD (on phage) [RB-H1] | binds |
| B1 | binds |
| B2 | binds |
| QWHMEDICLPQWGCLWGDVL (on phage) [RB-B5] | binds |

biological target: T3, rabbit serum albumin; assay: phage binding

| Binder | binding result |
| --- | --- |
| LWAMEDICLPKWGCLWEDDF (on phage) [RB-B4] | binds |
| LRLMDNICLPRWGCLWDDGF (not fully specified (bridges); cysteine pairing not given here, on phage) [RB-B7] | binds |
| NRQMEDICLPQWGCLWGDDF (on phage) [RB-H6] | binds |
| HSQMEDICLPRWGCLWGDEL (not fully specified (bridges); cysteine pairing not given here, on phage) [RB-B8] | binds |
| QRHPEDICLPRWGCLWGDDD (on phage) [RB-H1] | binds |
| B1 | binds |
| B2 | binds |
| QWHMEDICLPQWGCLWGDVL (on phage) [RB-B5] | binds |
